T1: DSN1 (subunit of MIS12C, hexahistidine tag) (human, UniProt Q9H410 1-356)
T1 sequence (looked up): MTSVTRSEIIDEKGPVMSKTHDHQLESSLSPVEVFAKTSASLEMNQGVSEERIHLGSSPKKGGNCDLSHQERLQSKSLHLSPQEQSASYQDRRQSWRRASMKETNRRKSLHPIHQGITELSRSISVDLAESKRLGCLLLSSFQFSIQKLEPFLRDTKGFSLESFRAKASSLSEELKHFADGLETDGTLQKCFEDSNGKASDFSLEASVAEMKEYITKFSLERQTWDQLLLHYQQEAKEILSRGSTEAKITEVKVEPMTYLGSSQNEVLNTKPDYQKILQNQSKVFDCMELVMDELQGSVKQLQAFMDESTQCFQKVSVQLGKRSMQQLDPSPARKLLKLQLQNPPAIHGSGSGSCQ

T2: KNL1^2106–2316 (C-terminal region of KNL1) (human, UniProt Q8NG31-2 2106-2316)
T2 sequence (looked up): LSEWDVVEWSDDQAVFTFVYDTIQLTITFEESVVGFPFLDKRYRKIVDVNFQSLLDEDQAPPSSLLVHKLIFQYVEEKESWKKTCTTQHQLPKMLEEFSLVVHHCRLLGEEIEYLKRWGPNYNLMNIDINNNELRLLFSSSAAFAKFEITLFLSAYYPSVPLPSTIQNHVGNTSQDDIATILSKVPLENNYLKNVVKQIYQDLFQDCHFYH

T3: SPC25^70–224 (human, UniProt Q9HBM1 70-224)
T3 sequence (looked up): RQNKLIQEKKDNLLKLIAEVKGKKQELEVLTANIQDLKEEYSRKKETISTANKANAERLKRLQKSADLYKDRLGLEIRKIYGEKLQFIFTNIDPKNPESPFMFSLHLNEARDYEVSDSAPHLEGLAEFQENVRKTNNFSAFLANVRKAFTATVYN

B1: MIS12C^NSL1-227 (MIS12 complex with a more extensive C-terminal deletion of NSL1) (complex, human)
chain 1: MSVDPMTYEAQFFGFTPQTCMLRIYIAFQDYLFEVMQAVEQVILKKLDGIPDCDISPVQIRKCTEKFLCFMKGHFDNLFSKMEQLFLQLILRIPSNILLPEDKCKETPYSEEDFQHLQKEIEQLQEKYKTELCTKQALLAELEEQKIVQAKLKQTLTFFDELHNVGRDHGTSDFRESLVSLVQNSRKLQNIRDNVEKESKRLKIS
chain 2: MAEASSANLGSGCEEKRHEGSSSESVPPGTTISRVKLLDTMVDTFLQKLVAAGSYQRFTDCYKCFYQLQPAMTQQIYDKFIAQLQTSIREEISDIKEEGNLEAVLNALDKIVEEGKVRKEPAWRPSGIPEKDLHSVMAPYFLQQRDTLRRHVQKQEAENQQLADAVLAGRRQVEELQLQVQAQQQAWQALHREQRELVAVLREPE
chain 3: T1 sequence (looked up)
chain 4: MAGSPELVVLDPPWDKELAAGTESQALVSATPREDFRVRCTSKRAVTEMLQLCGRFVQKLGDALPEEIREPALRDAQWTFESAVQENISINGQAWQEASDNCFMDSDIKVLEDQFDEIIVDIATKRKQYPRKILECVIKTIKAKQEILKQYHPVVHPLDLKYDPDPAPHMENLKCRGETVAKEISEAMKSLPALIEQGEGFSQVLRMQPVIHLQRIHQEVFSSCHRK
B2: MIS12C^NSL1-258 (MIS12 complex with NSL1 residues 1–258) (complex, human)
chain 1: B1 chain 1
chain 2: B1 chain 2
chain 3: T1 sequence (looked up)
chain 4: MAGSPELVVLDPPWDKELAAGTESQALVSATPREDFRVRCTSKRAVTEMLQLCGRFVQKLGDALPEEIREPALRDAQWTFESAVQENISINGQAWQEASDNCFMDSDIKVLEDQFDEIIVDIATKRKQYPRKILECVIKTIKAKQEILKQYHPVVHPLDLKYDPDPAPHMENLKCRGETVAKEISEAMKSLPALIEQGEGFSQVLRMQPVIHLQRIHQEVFSSCHRKPDAKPENFITQIETTPTETASRKTSDMVLKR
B3: MIS12 (subunit of MIS12C) (natural protein, human, UniProt Q9H081 1-205, looked up)
chain: B1 chain 1
B4: MIS12C–KNL1^2106–2316 (five-subunit complex) (complex, human)
chain 1: B1 chain 1
chain 2: B1 chain 2
chain 3: T1 sequence (looked up)
chain 4: MAGSPELVVLDPPWDKELAAGTESQALVSATPREDFRVRCTSKRAVTEMLQLCGRFVQKLGDALPEEIREPALRDAQWTFESAVQENISINGQAWQEASDNCFMDSDIKVLEDQFDEIIVDIATKRKQYPRKILECVIKTIKAKQEILKQYHPVVHPLDLKYDPDPAPHMENLKCRGETVAKEISEAMKSLPALIEQGEGFSQVLRMQPVIHLQRIHQEVFSSCHRKPDAKPENFITQIETTPTETASRKTSDMVLKRKQTKDCPQRKWYPLRPKKINLDT
chain 5: T2 sequence (looked up)
B5: NSL1^227–281 (C-terminal tail of NSL1) (domain or fragment, human, UniProt Q96IY1 227-281, looked up)
chain: KPDAKPENFITQIETTPTETASRKTSDMVLKRKQTKDCPQRKWYPLRPKKINLDT
B6: SPC24^57–197–SPC25^70–224 (complex, human)
chain 1: TMEKEVAQSLLNAKEQVHQGGVELQQLEAGLQEAGEEDTRLKASLLQLTRELEELKEIEADLERQEKEVDEDTTVTIPSAVYVAQLYHQVSKIEWDYECEPGMVKGIHHGPSVAQPIHLDSTQLSRKFISDYLWSLVDTEW
chain 2: T3 sequence (looked up)
B7: SPC24^57–197 (domain or fragment, human, UniProt Q8NBT2 57-197, looked up)
chain: B6 chain 1

Where “and” joins values, the source holds several entries; their conditions need not be identical. Equal values may be shown once.

The target of experiment [1] is fluorescein-labeled synthetic peptides encompassing residues 205–217 or 202–219 of NSL1. Kind of experiment: fluorescence polarisation. On the technique in general: Polarisation of emitted light reports the rotation of a fluorescent probe.
Experiment [2] concerns the target T4, NDC80 complex (four-subunit NDC80C) (human, UniProt O14777 1-642; Q9BZD4 1-464; Q8NBT2 1-197; Q9HBM1 1-224). Kind of experiment: SEC. (SEC sorts molecules by how far they enter the pores of the column.)
Experiment [3] addresses T4, NDC80 complex (four-subunit NDC80C). Kind of experiment: ITC. (In general: ITC needs no label: the signal is the heat of the interaction.)
For experiment [4], the target named is T1, DSN1 (subunit of MIS12C, hexahistidine …). Kind of experiment: co-expression and co-purification.
Experiment [5] has as its target T2, KNL1^2106–2316 (C-terminal region of …). Kind of experiment: ITC.
The target in experiment [6] is B2. Description: AUC.
The target of experiment [7] is B2. Description: ITC.
Experiment [8] addresses T3, SPC25^70–224. Description: AUC.

T4 sequence (O14777 whole entry, chain 1 of 4): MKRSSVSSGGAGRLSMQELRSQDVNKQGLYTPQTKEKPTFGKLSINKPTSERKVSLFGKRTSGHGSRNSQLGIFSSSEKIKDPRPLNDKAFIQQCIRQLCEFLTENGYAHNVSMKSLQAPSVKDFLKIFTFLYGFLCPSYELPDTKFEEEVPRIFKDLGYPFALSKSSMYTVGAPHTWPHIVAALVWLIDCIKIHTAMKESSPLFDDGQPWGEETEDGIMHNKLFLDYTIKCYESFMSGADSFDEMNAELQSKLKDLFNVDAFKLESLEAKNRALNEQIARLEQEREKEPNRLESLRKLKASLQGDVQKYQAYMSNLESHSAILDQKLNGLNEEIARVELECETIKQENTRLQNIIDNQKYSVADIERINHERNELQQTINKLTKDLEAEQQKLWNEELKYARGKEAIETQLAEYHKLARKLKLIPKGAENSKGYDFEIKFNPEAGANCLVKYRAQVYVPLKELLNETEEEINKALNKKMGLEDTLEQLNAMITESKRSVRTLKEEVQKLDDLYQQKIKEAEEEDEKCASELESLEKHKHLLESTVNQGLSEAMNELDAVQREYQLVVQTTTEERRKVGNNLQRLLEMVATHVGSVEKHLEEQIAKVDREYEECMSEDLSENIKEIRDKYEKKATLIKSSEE
T4 sequence (Q9BZD4 whole entry, chain 2 of 4): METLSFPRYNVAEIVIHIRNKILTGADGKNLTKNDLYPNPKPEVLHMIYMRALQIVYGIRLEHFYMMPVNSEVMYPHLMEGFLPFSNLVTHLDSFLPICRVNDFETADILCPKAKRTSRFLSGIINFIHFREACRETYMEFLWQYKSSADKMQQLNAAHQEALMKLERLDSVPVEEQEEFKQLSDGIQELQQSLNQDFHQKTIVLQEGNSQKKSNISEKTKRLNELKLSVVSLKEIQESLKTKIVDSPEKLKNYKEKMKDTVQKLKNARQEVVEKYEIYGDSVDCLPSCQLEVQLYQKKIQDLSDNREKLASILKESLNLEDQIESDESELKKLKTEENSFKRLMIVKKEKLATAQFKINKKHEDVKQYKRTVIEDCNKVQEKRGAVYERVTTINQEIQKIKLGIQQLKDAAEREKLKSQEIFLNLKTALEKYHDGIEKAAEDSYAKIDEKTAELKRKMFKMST
T4 sequence (Q8NBT2 whole entry, chain 3 of 4): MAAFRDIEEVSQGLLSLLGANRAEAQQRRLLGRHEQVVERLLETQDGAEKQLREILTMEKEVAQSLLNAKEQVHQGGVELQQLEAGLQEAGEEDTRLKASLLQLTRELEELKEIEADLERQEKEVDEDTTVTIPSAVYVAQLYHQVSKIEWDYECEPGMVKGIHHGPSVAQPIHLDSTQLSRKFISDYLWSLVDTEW
T4 sequence (Q9HBM1 whole entry, chain 4 of 4): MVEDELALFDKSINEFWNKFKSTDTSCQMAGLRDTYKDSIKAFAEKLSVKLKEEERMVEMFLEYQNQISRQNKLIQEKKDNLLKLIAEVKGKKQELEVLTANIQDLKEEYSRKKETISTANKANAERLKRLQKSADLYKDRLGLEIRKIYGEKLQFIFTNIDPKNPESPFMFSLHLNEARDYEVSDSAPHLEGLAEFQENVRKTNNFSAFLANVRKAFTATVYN

As for “HP1^110–191 (chromoshadow domain of HP1-α) (from UniProt P45973 110-191) (domain or fragment)”, the equilibrium dissociation constant (Kd) in experiment [1] was 400 to 500 nM.

B1: the binding result in experiment [2] is “binds”.

B2: the Kd in experiment [3] was about 10 nM.

Turning to B3, in experiment [4], the binding result is “binds”.

For the molecule B4, in experiment [3], binding was characterised by a dissociation constant (Kd) of 4 nM.

Turning to B5, in experiment [5], the Kd is ~63 nM and ~130 nM; the “stoichiometry N” value came to 1.

On to B6, for which, in experiment [6], the “stoichiometry N” value came to 1. Moreover, the Kd in experiment [7] was about 10 nM.

Consider B7, for which the “stoichiometry N” value in experiment [8] was found to be 1.

A word on the Kd: it is the equilibrium constant for the complex coming apart. Read a low Kd as tighter binding. As usually defined, the stoichiometry N is the number of molecules, sites or subunits per partner or assembly.

The values above are taken from PMC2935574 (The Journal of Cell Biology, 2010).
